Reference: publication PMC12775124, “CUL4A-DDB1-DCAF10 is an N-recognin for N-terminally acetylated Src kinases” (Nature Communications, 2026)

System: CUL4A-DDB1-DCAF10
Assay: In vitro ubiquitination of Lyn-GFP variants by CUL4A-DDB1-DCAF10
Assay type: biochemical, human
Conditions: relative to Lyn^WT-GFP, NMT1/2 siRNA 72 h, mean ± s.d., n = 3
Text: Lyn^WT-GFP was ubiquitinated by the WT E3 complex in both conditions; however, unlike in vitro ubiquitination with endogenous Lyn (Fig. 5c, d), ubiquitination increased ~6-fold under NMT1/2 siRNA conditions. This is consistent with DCAF10 being limiting and overexpressed Lyn-GFP, accumulating an acetylated fraction available for DCAF10 in vitro. Then, we performed IPs for all Nt variants under NMT1/2 siRNA conditions (Fig. 6d, h–i). […] In vitro ubiquitination assays using untreated cell lysates led to similar results (Supplementary Fig. 7h, i).
Reactions contained E1, UBCH5B (E2), ubiquitin, Mg-ATP in ligation buffer and were incubated with bead-bound substrates, followed by washing and immunoblot detection of ubiquitinated species (anti-ubiquitin), with loading controls (anti-Lyn, -Fyn, -Src or -GFP) (n = 3 independent enzymatic assays). Complete reagent lists, complex preparation, substrate IP conditions, wash buffers, and gel/blot parameters are provided in the Supplementary Methods and Tables.
357 (v/v) glycerol, 2 mM TCEP, supplemented with Protease Inhibitor Cocktail), and lysed
358 by sonication. Lysates were cleared by centrifugation at 28,000 rpm for 45 min at 4 °C […]
382 EDTA, and loaded on a gradient gel (4–15%). Ubiquitination of substrates was assessed
383 by WB using an anti-ubiquitin antibody. Equal substrate loading was evaluated by anti- […]

Row | Molecule | Reduction of ubiquitination by the WT complex
1 | Lyn^G2A-GFP: Nt-mutant (G2A) Lyn-GFP (protein, UniProt P07948 2-512, looked up, variant G2A, GFP fusion) Tyrosine-protein kinase Lyn: ACIKSKGKDSLSDDGVDLKTQPVRNTERTIYVRDPTSNKQQRPVPESQLLPGQRFQTKDPEEQGDIVVALYPYDGIHPDDLSFKKGEKMKVLEEHGEWWKAKSLLTKKEGFIPSNYVAKLNTLETEEWFFKDITRKDAERQLLAPGNSAGAFLIRESETLKGSFSLSVRDFDPVHGDVIKHYKIRSLDNGGYYISPRITFPCISDMIKHYQKQADGLCRRLEKACISPKPQKPWDKDAWEIPRESIKLVKRLGAGQFGEVWMGYYNNSTKVAVKTLKPGTMSVQAFLEEANLMKTLQHDKLVRLYAVVTREEPIYIITEYMAKGSLLDFLKSDEGGKVLLPKLIDFSAQIAEGMAYIERKNYIHRDLRAANVLVSESLMCKIADFGLARVIEDNEYTAREGAKFPIKWTAPEAINFGCFTIKSDVWSFGILLYEIVTYGKIPYPGRTNADVMTALSQGYRMPRVENCPDELYDIMKMCWKEKAEERPTFDYLQSVLDDFYTATEGQYQQQP | ~ 82 ± 13%
2 | Lyn^G2P-GFP: Nt-mutant (G2P) Lyn-GFP (protein, UniProt P07948 2-512, looked up, variant G2P, C-terminal GFP fusion) Tyrosine-protein kinase Lyn: PCIKSKGKDSLSDDGVDLKTQPVRNTERTIYVRDPTSNKQQRPVPESQLLPGQRFQTKDPEEQGDIVVALYPYDGIHPDDLSFKKGEKMKVLEEHGEWWKAKSLLTKKEGFIPSNYVAKLNTLETEEWFFKDITRKDAERQLLAPGNSAGAFLIRESETLKGSFSLSVRDFDPVHGDVIKHYKIRSLDNGGYYISPRITFPCISDMIKHYQKQADGLCRRLEKACISPKPQKPWDKDAWEIPRESIKLVKRLGAGQFGEVWMGYYNNSTKVAVKTLKPGTMSVQAFLEEANLMKTLQHDKLVRLYAVVTREEPIYIITEYMAKGSLLDFLKSDEGGKVLLPKLIDFSAQIAEGMAYIERKNYIHRDLRAANVLVSESLMCKIADFGLARVIEDNEYTAREGAKFPIKWTAPEAINFGCFTIKSDVWSFGILLYEIVTYGKIPYPGRTNADVMTALSQGYRMPRVENCPDELYDIMKMCWKEKAEERPTFDYLQSVLDDFYTATEGQYQQQP | ~ 84 ± 10%
